Experimental findings from the nanobody polyreactivity screen of Harvey et al. (2022) are described below.

This data set can be described thus: yeast display, Sf9 membrane polyspecificity reagent, FACS + sequencing; frameworks hold sequencing errors. The essentials: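 A nanobody's polyreactivity label depends on the gate it was sorted from. Yeast display cells were stained with 10% biotinylated, detergent-solubilized Sf9 membrane reagent for 1 hour at 4 °C, enriched on streptavidin microbeads and sorted by FACS. The low and high (top ~1%) gates were set on anti-HA fluorescence for expression and streptavidin fluorescence for reagent binding.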
As to “QVQLVESGGGLVQAGGSLRLSCAASGRTFHDNGMGGYRQAPGKERELVAAISWRGGSTNYADSVKGRFTISRDNAKNTVYLQMNSLKPEETAVYFCNRVPRKFGKLDYWGQGTQVTVSS”, the “polyreactivity (PSR sort gate)” value was “low polyreactivity”. The value for “QVQLVESGGGLVQAGGSLRLSCAASGSIFRINAMGWYRPAPGKEREFVAAIRGSGGRTYYAESVKGRFTISRDNAKNTVYLQMNSLKPEDTAVYYCAADFSYRYFQRTSWPFDYWGQGTQVTVSS” was “high polyreactivity”; that for “QVQLVESGGGLVQAGGSLRLSCAASVRIFWYNAMGWYRQAPGKERELVATISSSGSTNYADSVKGRFTISRDNAKNTVYLQMNSLKPEDTAVYYGAPGKTGFRYGGGDSTQEYWGQGTQVTVSS” was “low polyreactivity”.

On to “QLQLEESGGGLVQAGGSLRLSFAASGLTFGRNAMGWYRQATGKVREFVAAISKSGTSTYYADSVKGRFTISRDNAKNTVYLQMISLKPEDTAVYDCARTNYAKRWDFDYWGQGTQVTVSS”, for which the “polyreactivity (PSR sort gate)” value was “low polyreactivity”. Under “QDQLVESGGGLVQAGGSLRLSCAASGRIIRAYAMGWYRQAPGKERELVAAISGGSNTNYADSVKGRFTISRDNAKNTVYLQMNSLKPEDTAVYYCAADAGYWESLWYPYGFYWGQGTQVTVSS” stands “low polyreactivity”; under “QVQLVESGGGLVQAGGSLRLSCAASGLTFQSYAMGWYRQAPGKERELVATISNGSSTYYADSVKGRFTISRDNAKNSVYLQMNSLKPEDTAVYYCAKDYYYSRNPLYGHDYWGQGTQVTVSS”, “low polyreactivity”. The value for “QVQLVESGGGLVQAGGSLRLSFAASGRTFGGYTMGWYRQAPGKERELVAAITWNGGRTYYADSVKGRFTISRDNAKNTVYLQMNILKPEDTAVYFCAVRIRLRRARLSYDYWGQGTQVTVSS” was “high polyreactivity”; that for “QVQRQESGGGLVQAGDSQRLSCAPSGNIFRFTDMGWYRQAPGQERELVAAINAGSTTYYADSVKGRFTISRDNAKNTVYLQMNSLKPEDTAVYYCAVYYLGSGTFGYWGQGAQVTVSS” was “high polyreactivity”; that for “QVHLVESGGGLVQAGGSLRLSCAASGSIFGGYGMGWYRQAPGKEREMVAAITSGSSTYYADSVKGPFTISRDNAKNSVYFQLNSLKPEDTAVYYCAARPYPHSAYEGDYWGRGTQVTVSS” was “low polyreactivity”. Under “QVQLVESGGGLVQAGGSLRLSCAASGITFYYYAMGWYRQAPGKERELVAAITVNGGTTYYADSVKGRFTISRDNAKNTVYLQMNSLKPEDTAVYYCNADGTFEYDYWGQGTQVTVSS” stands “low polyreactivity”.

With “QVQLVESGGGLVQAGGSLRLSCAASGFTLGFYAMGWYRQEPGKERELVAAINWRGGSTYYADSVKGRFTISRDNAKNTVYLLMNSLKPEDTAVYYCNRVYRPSRYDYWGQGTQVTVSS”, the “polyreactivity (PSR sort gate)” value was “high polyreactivity”. With “QVQLLESGGGLVQAGGSLRLSCAASGSIFVFYAMGWYRQAPGKERELVAAISSSGGSTYYADTVKGRITISRDNAKNTVYLQMNSLKPEDTAVYYCAVRRSTGSRSPPMYYWGQGTQVTVSS”, the “polyreactivity (PSR sort gate)” value was “high polyreactivity”. The value for “QVQLVESGGGLVQAGGSLRLSCAASGSIFQRYAMGWYRQAPGKERELVAGINWSGGRTYYADSVKGRFTISRDNAKNTVYLQMNSLKPEDTAVYYCAKPVERYTYSLYQQYDYWGQGTQVTVSS” was “high polyreactivity”.

On to “QVQLVESVGGLVQAGGSLRLICAASGRTFSRNAMGWYRQAPGKERELVAGISWRGTSTYYADSVKGRFTISRDNAKNTVFLQMNSLKPEDTAVYYCNRVFEYWSEYDYWGQGTQVTVSS”, for which the “polyreactivity (PSR sort gate)” value is recorded as “high polyreactivity”. Consider “QVQLVESGGGLVQAGGSLRLSCAASGSIFSDNVMGGYRQAPGKERELVAAIRDGDTTNYADSVKGRFTISRDNAKNTVYLQMNSLKPEDTAVYYCATRNTWYHRGYDYWGQGTQVTVSS”, for which the “polyreactivity (PSR sort gate)” value was “low polyreactivity”.

Take “QDQLVESGGGLVQAGGSLRLSCAASGSTFGYYVMGWYRQAPGKERELVAGISSSGGSTYYADSVKGRFTISRDNAKNTVYLQMNSLKPEDTAVYYCAAVRGTGTRRYDYWGQGTQVTVSS”: the “polyreactivity (PSR sort gate)” value is recorded as “high polyreactivity”. The value for “QVQLVESGGGLVQAGGSLRLSCAASGSIFVLYAMGWYRQAPGKERELVAAINYDGASTYYADSVKGRFTISRDNAKNTVYLQMNSLKPEDTAVYYCAARWQFNIDVQLYLFEYWGQGTEVTVSS” was “low polyreactivity”; that for “QVQLVESGGGLVQAGGTLRLSCAASGITLKLYVMGWYRQAPGKERELVAAISRRGGSTYYADSVKGRFTLSRDNAKYTVYLQMISLKPEDTAVYYCAKDGTQYERKDPAYGYWGQGTQVTVSS” was “high polyreactivity”; that for “QVQLVESGGGLVQAGGSLRLSGAASGFIFGYYAMGWYRQAPGKERELVAAITSRGGSTYYADSVKGRFTISRDNAKNTVYLQMNSLKPEDTAVYYCAAGYNGYGLQYYYWGQGTQVTVSS” was “high polyreactivity”. Under “QVQLVESGGGLVQAGGSLRLSCAASGITFYFNAMGWYRQAPGKERELVAAISFSGGGTYYADSVKGRFTISRDNAKNTVYLQMTSLKPEDTAVYYCNADYGRGTLRSIYDYWGQGTQVTVSS” stands “low polyreactivity”; under “QVQLVESGGGLVQAGGSLRLSCAASGFTFNYNAMGWYRQAPRKERELVAAISRSGGRTYYADSVKGRFTISRDKAKNTVYLQMNSLKPADTAVYYCAADSRTNGYDYWGQGTQVTVSS”, “high polyreactivity”; under “QVQLVESGGGLVQAGGSLRLSCAASGSIFDVYAMGWSRQAAGTERELVAAIDSGGSSTYYADSVKGRFTISRDNAKNSVYLQMNSLKPEDTAVYYCAARPYYSWNYDYWGQGTQVTVSS”, “low polyreactivity”.

Regarding “QVHLVESGGGLVQAGGSLRLSCAASGSIFPFNAMGWYRQAPGKERELVAAIRWSDGRTYYADSVKGRFTISRDNAKNTVYLQMNSLKPEDTAVYYCAAKSYWGQGTQVTVSS”, the “polyreactivity (PSR sort gate)” value is “high polyreactivity”. Under “QVQLVESGGGLVQAGRSHRLSFAASGFTLKGYAMGWYRQAPGKDRELVAAISWNGGRTYYADSVKGRFTISRDNAKNTVYLQMNSLKPEVTAVYYCAAVYRFYSPTKYTYDYWGQGTQVTVSS” stands “high polyreactivity”. Under “QVQLVESGGGLVQAGGSLRLSCAASGRTFYNTMGLYRQAPGKERELVAAISRGGITNYADSVKGRFTISRDSAKNTGDLQMHSLKPEDTAVYYCNAEPKRYYYYYKFDSWGQGTQVTVSS” stands “high polyreactivity”; under “QVQLVESGGGLVQAGGSLRLICDASGRIFRSYAMGWYRQAPGKERELVAAINWRGGSTFYADSVKGRFTISRDNAKNTVYLQMNSLKPEDTAVYYCARRGYRQSGDYWGQGTQVTVSS”, “low polyreactivity”; under “QGQLVESGGGLVQARGSLRLSCAAYGRTFYGNVMGWYRQAPGNERELDATISVSSGSTYYADSVKGRFTISRDTEKNTVYLLMNSLKPEDSAVYYCNADDTDYATGGGNYWGQGTQVTVSS”, “low polyreactivity”.

As for “QVQLVESGGGLVEAGGSLRLSCAASGLTFIVKAIGWYRQAPGKEREFVAAIRSGDGNTHYADSLKGRYTISRDNAKNTVYFQMNSLKPVDTAVYYCNAGFPRSYRFDYWGQGTQVTVSS”, the “polyreactivity (PSR sort gate)” value is given as “high polyreactivity”.

“QVQLVESGGGLVQAGGSLRLSCAASGFIFGNNDRGWYRQAPGKERELVAGITWSGSSTYYADSVKGRFTISRDNAKNTVYLQMNSLKPEDTAVYYCIRVFTWRYGYRYEYWGQGTQVTVSS”: the “polyreactivity (PSR sort gate)” value is recorded as “high polyreactivity”. Turning to “QVQLVESGGGLVQAGGSLRLSCAASGFIFNRYAMGWYRQAPGKERELVAAISFSGGSTYYADSVKGRFTISRDNAKNTVYLQMNSLKPEDTAVYYCAASWYRYGYWGQGTQVTVSS”, the “polyreactivity (PSR sort gate)” value was “high polyreactivity”. On to “QVQHVESGGGLVQAGGSLRLSCAASGSTFVGNAMGWYRQAPGKERELVADITSGGSTNYADSVKGRFTISRDNAKNTVYLQMNSLKPEDTAVYYCAAVYLWSQRREFWGQGTQVTVSS”, for which the “polyreactivity (PSR sort gate)” value is “low polyreactivity”. Under “QVQLVESRGGLVQAGGSLRLSCAASGRIFWVNAMGWYRQAPGKERELVAVISRGGSTTYADSVKGRFTISRDNAKNTVYLQMNSLKPEDTAVYYCAADAYRHAFLYYGYDYWGQGTQVTVSS” stands “low polyreactivity”; under “QVQLEESGGGLVQAGGSLRLSCAASGRIFPYYTMGWYRQAPGKERELVAAISWSGGSTYYADSVKGRFTISRDNAKNTVYLQMNSLKPEDTAVYYCNVRKVYRYQYRFEYWGQGTQVTVSS”, “high polyreactivity”.

Take “QFQLVESGGGLVQAGGSLRLSCAASGIFVGYTMGWYRQAPGKEREFVAAIRWTDGSTYYADSVKGRFTISRDNAKNTVYLQMNSLKPEDTAVYYCAADSHDPARYYYGDEVEDEYWGQGTQVTVSS”: the “polyreactivity (PSR sort gate)” value is “low polyreactivity”. Under “QVQLVESGGGLVQAGGSLRLSCAASGRTFFDYAMGWYRQAPGKERELVATIRGGGSTNYADSVKGRFTISRDNAKNTVYLQMNSLKPEDTAVYYCAVRRRWYFPQYRSGRSLDYWGQGTQVTVSS” stands “high polyreactivity”; under “QVQLVESGGGLVQAGGSLRLSSAASGRTFPIYAMGWYRQAPGKERELVATITLNDGNTYYADSVKGRFTISRDNAKNTVYLQMNSLKPEDTAVYYCAAKGGWPWHYHYQKNSEYDYWGQGTQVTVSS”, “low polyreactivity”; under “QVQLVESGGGLVQAGGSLRLSCAASGSTFVLYAMGWDRQAPGKERELVAAISGGATTTYADSVKGRFTISRDNAKNTVYLQMNSLKPEDTAVYSCAADFSTFVVSGAAMDYWGQGTQVTVSS”, “low polyreactivity”.

As to “QVQIVESGRGLVQAGGSLRLSCASSGFTFVSYAMGWYRQAPGKERELDASISKRGGTTYYADSVKGRFTISRDNAKNTVYLQMNSLKPEDTAVYYCYARDTRRYVTYDSGYDYWGQGTQVTVSS”, the “polyreactivity (PSR sort gate)” value is reported as “high polyreactivity”. The value for “QVQIVDSGGGLVQAGGSLSLSCAASGSTIYRYAMGWYRQAPGKERELVAAITSAGSTNYADSVKGRFTISRDNAKNTVYLQMNSLKPEDTAVYYCAADHGRPYFSYDYWGQGTQVTVSS” was “low polyreactivity”; that for “QVQLVESGGGLVQAGGSLRLSCAASGSTFTWYAMGWYRQAPGKERELVAAISRGGSTNYADSVKGRFTISRDNAKNTVYLQMNSLKPEDTAVYYCAAESYWRDDYWGQGTQVTVSS” was “low polyreactivity”. “QVQLVESGGGLVQAGGSLRLSCAASGRIFWANAMGWYRQAPGKERELVAAISYSGVSTYYADSVKGRFTISRDNAKNTVYLQMNSLKPADTAVYYCAADRYRKYYYWGQGTQVTVSS”: the “polyreactivity (PSR sort gate)” value is reported as “high polyreactivity”.
